This note sets out measurements from article PMC11989107, “Biochemical and Structural Characterization of a Highly Glucose-Tolerant β-Glucosidase from the Termite Reticulitermes perilucifugus” (International Journal of Molecular Sciences, 2025).

The subject of this series is O=[N+]([O-])c1ccc(O[C@@H]2O[C@H](CO)[C@@H](O)[C@H](O)[C@H]2O)cc1. The series is described as follows: purified protein. Conditions: 37 °C, 20 mM phosphate buffer pH 7.0, 1-20 mM pNPG.

RpBgl8 (Reticulitermes perilucifugus), sequence (chain, as listed by the source): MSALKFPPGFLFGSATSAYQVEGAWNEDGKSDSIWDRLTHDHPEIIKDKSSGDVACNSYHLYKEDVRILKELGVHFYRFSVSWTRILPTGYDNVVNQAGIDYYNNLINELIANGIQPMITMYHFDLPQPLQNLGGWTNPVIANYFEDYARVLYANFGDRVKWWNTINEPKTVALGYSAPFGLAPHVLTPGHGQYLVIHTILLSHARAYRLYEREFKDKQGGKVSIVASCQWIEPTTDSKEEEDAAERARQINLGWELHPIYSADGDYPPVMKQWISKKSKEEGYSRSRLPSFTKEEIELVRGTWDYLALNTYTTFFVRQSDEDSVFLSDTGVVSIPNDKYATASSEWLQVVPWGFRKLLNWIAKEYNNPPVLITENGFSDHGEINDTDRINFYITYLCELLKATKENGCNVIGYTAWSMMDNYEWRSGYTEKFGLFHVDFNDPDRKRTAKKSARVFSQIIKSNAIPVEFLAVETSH

Usually Km stands for the concentration of substrate that gives half-maximal velocity. By kcat is commonly meant the number of substrate molecules converted per active site and unit of time at saturation. For the substance RpBgl8 (Reticulitermes perilucifugus), the Km amounted to 5.4 mM and the kcat came out at 0.17 s⁻¹.
